How the values were obtained:
[1] = biological target: T1, human CD79b recombinant protein (human, UniProt P40259 29-159); assay: ELISA, coated human CD79b recombinant protein
T1 construct: also called human CD79b ECD antigen; recombinant human CD79b ECD
T1 sequence: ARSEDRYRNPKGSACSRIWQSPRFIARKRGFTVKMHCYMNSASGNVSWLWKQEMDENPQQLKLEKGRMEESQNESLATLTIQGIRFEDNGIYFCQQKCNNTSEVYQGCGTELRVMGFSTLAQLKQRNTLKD
Protocol: (§1) Binding affinities of anti-CD79b antibodies to human and cynomolgus CD79b recombinant proteins were tested by ELISA. 1 ug/ml (in PBS buffer) of human or cynomolgus CD79b recombinant proteins were coated on an ELISA plate overnight. ELISA plates were washed and blocked with blocking buffer (PBS+1% BSA) followed by incubation with serially diluted anti-CD79b primary antibodies. Anti-CD79b antibody binding was quantified using an anti-human IgG HRP secondary antibody (Biolegend Catalog #410902) and HRP substrate.

[2] = biological target: T1, human CD79b recombinant protein; assay: BLI, antibody captured on anti-human IgG Fc probes, human CD79b in solution, 1:1 model
Protocol: (§2) Binding affinities of anti-CD79b antibodies to human CD79b recombinant proteins were tested by BLI. 10 ug/ml of anti-CD79b antibodies were captured by anti-human IgG Fc probes (Gator Bio Catalog #160024). […] Absolute kD was determined by applying a 1:1 binding model (Global Rmax unlinked).

[3] = biological target: T2, cynomolgus CD79b recombinant protein (cynomolgus); assay: ELISA; cynomolgus CD79b recombinant protein coated at 1 ug/ml; anti-human IgG HRP; OD 450 nm
T2 chain: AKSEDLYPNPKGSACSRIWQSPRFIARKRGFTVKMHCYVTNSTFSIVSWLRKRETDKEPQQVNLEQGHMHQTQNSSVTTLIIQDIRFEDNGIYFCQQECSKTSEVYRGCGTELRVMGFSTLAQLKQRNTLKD
Protocol: as §1

[4] = biological target: T3, CD79b endogenously expressed on the cell surface (malignant B cell lines, normal B cells in PBMC, CLL … (human, UniProt P40259 29-229)); assay: flow cytometry on Ramos cells; anti-human IgG1-PE; MFI (PE); table under the graph; curve reaches only about 0.3x10^5 at 40 nM
T3 construct: whole, on cells; On cells CD79b stands in the B-cell receptor complex with CD79a and surface Ig; also called cell surface CD79b; endogenous CD79b
T3 sequence (looked up): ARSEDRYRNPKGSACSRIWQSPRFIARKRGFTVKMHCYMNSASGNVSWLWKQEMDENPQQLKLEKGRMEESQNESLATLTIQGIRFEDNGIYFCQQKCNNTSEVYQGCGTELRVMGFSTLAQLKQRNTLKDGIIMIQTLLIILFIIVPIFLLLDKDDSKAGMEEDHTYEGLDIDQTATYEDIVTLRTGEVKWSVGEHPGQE
Protocol: (§3) The binding affinities of anti-CD79b antibodies to malignant B cell lines were tested. […] The cells were then incubated with 100 μl anti-human IgG1-PE (Invitrogen, cat: 12-4998-82), 1:1000 dilution, for 30 min on ice, washed with 200 ul PBS for three times before flow cytometry analysis.

[5] = biological target: T3, CD79b endogenously expressed on the …; assay: flow cytometry on Daudi cells; anti-human IgG1-PE; MFI (PE); table under the graph; curve reaches only about 0.2x10^5 at 40 nM
Protocol: as §3

[6] = biological target: T1, human CD79b recombinant protein; assay: BLI; antibody at 10 ug/ml captured on anti-human IgG Fc probes, hCD79b in solution; same value printed in the rows for 18.3 and 9.14 nM hCD79b
Protocol: as §2

[7] = biological target: T3, CD79b endogenously expressed on the …; assay: flow cytometry on BJAB cells; anti-human IgG1-PE; MFI (PE); table under the graph; plateau only about 1.1x10^5 against about 6x10^5 for the others
Protocol: as §3

[8] = biological target: T3, CD79b endogenously expressed on the …; assay: flow cytometry on Nalm-6 cells; anti-human IgG1-PE; MFI (PE); table under the graph; fit of a flat curve, far above the highest concentration of 40 nM
Protocol: as §3

IC50 [1]: 0.17 nM
Kd [2]: 0.476 nM
binding result [3]: no binding (tested: about 13 nM)
EC50 [4]: 11.3 nM
EC50 [5]: 14.2 nM
koff [6]: 0.000168 s⁻¹
kon [6]: 353000 M⁻¹ s⁻¹
EC50 [7]: 0.99 nM
EC50 [8]: 508 nM
B1: ch29C3 (antibody, human IgG1, kappa, V domains shown)
VH: QSVKESGGGLFKPTDTLTLTCTVSGIDLNNYAMNWVRQAPGKGLDWIGLIGASGSTYYADWAKGRFTISKTSTTVDLKMTSLTTEDTATYFCAIGISATAHTSNIWGPGTLVAVSL
VL: ALVMTQTPSSVSAAVGGTVTINCQASQNIDSNLAWYQQKPGQPPKLLIYDASALASGVPSRFKGSGSGTEYTLTISGVEPDDAATYYCQQDDSSSNVDNPFGGGTEVVVKR
notes: Rabbit/human chimeric IgG1 kappa; also called chimeric 29C3
